The text below walks through data of patent US5604098.

The series concerns the target T1, CviJ I restriction endonuclease (Chlorella virus IL-3A (infected Chlorella NC64A)) (UniProt P52283).
T1 sequence: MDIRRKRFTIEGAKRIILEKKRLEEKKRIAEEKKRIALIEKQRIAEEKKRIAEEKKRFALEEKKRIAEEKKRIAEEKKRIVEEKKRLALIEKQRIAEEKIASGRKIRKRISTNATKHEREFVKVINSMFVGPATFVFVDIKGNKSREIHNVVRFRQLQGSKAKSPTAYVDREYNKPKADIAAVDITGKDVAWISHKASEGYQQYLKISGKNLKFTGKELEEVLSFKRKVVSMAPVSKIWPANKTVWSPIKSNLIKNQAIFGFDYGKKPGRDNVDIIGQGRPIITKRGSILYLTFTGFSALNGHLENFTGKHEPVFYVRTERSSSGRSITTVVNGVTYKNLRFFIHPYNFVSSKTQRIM
Kind of series: cleavage_in_vitro. Particulars: for activity (% of cleaved junctions): CviJ I* complete digest; for activity (% of cloned junctions): CviJ I** partial digest.

In turn, AGCA (double strand) [AGCA site] yielded an activity (% of cloned junctions) of 1.3. Where the note is “13 cleaved, 5 not cleaved”, this sequence came in with an activity (% of cleaved junctions) of 6.5.
AGCC (double strand) [AGCC site] came in with an activity (% of cleaved junctions) (23 cleaved, 1 not cleaved) of 11.5. Also, for the setting “Mg, ATP, DTT, 20% DMSO, low salt”, the activity (% of cloned junctions) worked out at 17.1.
AGCG (double strand) [AGCG site]: the activity (% of cloned junctions) was found to be 0. Further, the activity (% of cleaved junctions) (12 cleaved, 11 not cleaved) stood at 6.
AGCT (double strand) [AGCT site] returned an activity (% of cloned junctions) of 32.9. Where the note is “35 cleaved, 0 not cleaved”, this sequence had an activity (% of cleaved junctions) of 17.5.
CGCA (double strand) [CGCA site] yielded an activity (% of cloned junctions) of 0. This sequence gave an activity (% of cleaved junctions) (12 not cleaved) of 0.
For the sequence CGCC (double strand) [CGCC site], the activity (% of cloned junctions) was 0. The same sequence had an activity (% of cleaved junctions) (11 cleaved, 4 not cleaved) of 5.5.
As to CGCG (double strand) [CGCG site], the activity (% of cloned junctions) worked out at 0. Where the note is “27 not cleaved”, the activity (% of cleaved junctions) is 0.
Take CGCT (double strand) [CGCT site]: the activity (% of cloned junctions) came out at 2.6. Also, the activity (% of cleaved junctions) (17 cleaved, 7 not cleaved) was 8.5.
GGCA (double strand) [GGCA site] gave an activity (% of cloned junctions) of 0. For the same sequence, the activity (% of cleaved junctions) (11 cleaved, 3 not cleaved) amounted to 5.5.
GGCC (double strand) [GGCC site] showed an activity (% of cloned junctions) of 21.1. The activity (% of cleaved junctions) (24 cleaved, 1 not cleaved) was 12.
GGCG (double strand) [GGCG site] came in with an activity (% of cloned junctions) of 5.2. In addition, the activity (% of cleaved junctions) (18 cleaved, 8 not cleaved) was 9.
For GGCT (double strand) [GGCT site], the activity (% of cloned junctions) turned out to be 15.8. Under “13 cleaved, 0 not cleaved”, this sequence showed an activity (% of cleaved junctions) of 6.5.
The sequence TGCA (double strand) [TGCA site] returned an activity (% of cloned junctions) of 0. Further, the activity (% of cleaved junctions) (19 not cleaved) is 0.
In turn, TGCC (double strand) [TGCC site] registered an activity (% of cloned junctions) of 2.6. This sequence registered an activity (% of cleaved junctions) (13 cleaved, 10 not cleaved) of 6.5.
With TGCG (double strand) [TGCG site], the activity (% of cloned junctions) was determined as 0. In addition, the activity (% of cleaved junctions) (3 not cleaved) was found to be 0.
The sequence TGCT (double strand) [TGCT site] came in with an activity (% of cloned junctions) of 1.3. Where the note is “10 cleaved, 5 not cleaved”, this sequence displayed an activity (% of cleaved junctions) of 5.
